Here are results for two molecules from patent publication EP2814500B1 (Ecole Polytechnique Fédérale de Lausanne (EPFL), dated 2020).

The target in assay [1] is T1, mouse glycophorin-A (GYPA) on the mouse erythrocyte surface (mouse, UniProt P14220 1-168). Kind of assay: photo-crosslinking of biotinylated peptide on whole mouse erythrocytes, streptavidin Western blot. In general terms: Immunoblotting shows a protein as a band on a membrane.
The target in assay [2] is T1, mouse glycophorin-A (GYPA) on the mouse …. Kind of assay: photo-crosslinking of biotinylated peptide on whole mouse erythrocytes, streptavidin bead purification, streptavidin and anti-GYPA Western blots.

B1: mismatch peptide (H2N-PLLTVGMDLWPWGGSGCRG-CONH2) conjugated to Mts-Atf-biotin (peptide)
peptide: H-PLLTVGMDLWPWGGSGCRG-NH2
modifications: not fully specified; also: conjugated to Mts-Atf-biotin, site not given here
notes: Control peptide with the same residues as ERY1 in scrambled order
As for B1, the binding result in assay [1] is recorded as “no binding”.

B2: ERY1 peptide (H2N-WMVLPWLPGTLDGGSGCRG-CONH2) functionalized with biotin and a photoactivatable crosslinker (peptide)
peptide: H-WMVLPWLPGTLDGGSGCRG-NH2
modifications: also: conjugated to Mts-Atf-biotin, site not given here
notes: Synthetic peptide: the ERY1 12-mer followed by a GGSG linker, Cys and Arg-Gly; also called biotinylated soluble peptide; peptide-biotin complex
As for B2, the binding result in assay [2] was “binds”.
